Measured values published in US20130251708A1 (ABGENOMICS COOPERATIEF U A, published 2013).

T1: human PSGL-1 on activated primary human CD4+ T cells (human, UniProt Q14242 42-412)
T1 construct: also called P-selectin glycoprotein ligand-1; SELPLG
T1 sequence: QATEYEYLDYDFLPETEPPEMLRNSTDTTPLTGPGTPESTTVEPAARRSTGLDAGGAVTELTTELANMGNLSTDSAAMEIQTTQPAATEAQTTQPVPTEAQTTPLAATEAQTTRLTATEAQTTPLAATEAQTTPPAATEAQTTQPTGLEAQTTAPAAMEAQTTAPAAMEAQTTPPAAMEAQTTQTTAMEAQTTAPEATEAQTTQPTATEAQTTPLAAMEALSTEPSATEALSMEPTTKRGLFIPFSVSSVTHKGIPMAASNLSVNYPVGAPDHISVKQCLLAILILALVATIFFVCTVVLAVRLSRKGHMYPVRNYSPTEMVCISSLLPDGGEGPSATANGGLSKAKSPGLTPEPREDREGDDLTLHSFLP


Columns and labels:
[1] = target: T1, human PSGL-1 on activated primary human …; experiment: flow cytometry on activated human CD4+ T cells, mean +/- SEM of 4 donors
Procedure: (§1) Anti-lysozyme IgG4, h15A7 and 15A7H antibody binding affinity to activated CD4+ T cells were determined by plotting antibody concentration versus mean fluorescence index (MFI) for each sample duplicate using XLfit (model: dose response one site, 205). EC50 values were determined for each binding curve.
Using flow cytometry, the binding of 15A7H to activated human CD4+ T-cells was determined.
(§2) EC50 values from 4 donors were used to calculate Mean+/−SEM.

[2] = target: T1, human PSGL-1 on activated primary human …; experiment: flow cytometry on activated human CD4+ T cells, mean +/- SEM
Procedure: as §1, §2

| EC50 [1] | EC50 [2] | Binder |
| --- | --- | --- |
| 0.22 nM | – | 15A7H (antibody, human IgG4 S228P, kappa, Humanized IgG4 kappa antibody with the Ser228->Pro228 (EU index) hinge mutation, made in CHO-DG44 cells; also called hinge mutant of h15A7; 15A7H antibody) heavy: not shown light: DIQMTQSPSSLSASVGDRVTITCRSSQSIVHNDGNTYFEWYQQKPGKAPKLLIYKVSNRFSGVPSRFSGSGSGTHFTLTISSLQPEDFATYYCFQGSYVPLTFGQGTKVEIKRTVAAPSVFIFPPSDEQLKSGTASVVCLLNNFYPREAKVQWKVDNALQSGNSQESVTEQDSKDSTYSLSSTLTLSKADYEKHKVYACEVTHQGLSSPVTKSFNRGEC |
| – | 0.27 nM | h15A7 (antibody, human IgG4, kappa, Parent IgG4 kappa antibody with the wild-type hinge; also called Antibody h15A7) heavy: not shown light: DIQMTQSPSSLSASVGDRVTITCRSSQSIVHNDGNTYFEWYQQKPGKAPKLLIYKVSNRFSGVPSRFSGSGSGTHFTLTISSLQPEDFATYYCFQGSYVPLTFGQGTKVEIKRTVAAPSVFIFPPSDEQLKSGTASVVCLLNNFYPREAKVQWKVDNALQSGNSQESVTEQDSKDSTYSLSSTLTLSKADYEKHKVYACEVTHQGLSSPVTKSFNRGEC |
